# Data reported in patent US20230287433, “APTAMERS FOR PERSONAL HEALTH CARE APPLICATIONS” (The Procter & Gamble Company, published 2023).
# Experiments:
# human serum albumin = human serum albumin (Homo sapiens, UniProt P02768 P02768:25-609); assay: SPR; 250 nM HSA, no significant binding
# Procedure: (§1) After conjugation of the cystamine moeities to phosphoramidate bonds at the 5′ phosphate group, the aptamer was immobilized on a gold chip by depositing an aliquot of 10 nL of aptamer solution at a concentration of 10 μM onto the surface of the chip. The gold reduces the cystamine to a pair of thiols and then catalyzes the reduction reaction that results in the covalent bond between the gold surface and the thiol groups of the modified aptamers.
# (§2) Solutions of 200 μL of ICAM-1 protein or human serum albumin were flown over the gold chip at a concentration of 250 nM and a flow rate of 50 μL/min using an Openplex Surface Plasmon Resonance System (Horiba, Kyoto, Kyoto, Japan). Thus, the association phase lasted for 4 minutes after injection and was immediately followed by the disassociation phase. The total resonance of the negative control aptamer was subtracted from the total resonance observed for each of the candidate aptamers. The result corresponds to the resonance contribution due to the binding of the protein to the aptamer.
# [1] = biological target: T1, ICAM-1 extracellular domain (C-terminal His) (Homo sapiens, UniProt P05362 SEQ:1-453); assay: SPR; aptamer immobilized on gold chip; 250 nM ICAM-1; settings: tags: C-terminal His6; Ray-Biotech 228-21751-2
# T1 sequence (P05362 28-480): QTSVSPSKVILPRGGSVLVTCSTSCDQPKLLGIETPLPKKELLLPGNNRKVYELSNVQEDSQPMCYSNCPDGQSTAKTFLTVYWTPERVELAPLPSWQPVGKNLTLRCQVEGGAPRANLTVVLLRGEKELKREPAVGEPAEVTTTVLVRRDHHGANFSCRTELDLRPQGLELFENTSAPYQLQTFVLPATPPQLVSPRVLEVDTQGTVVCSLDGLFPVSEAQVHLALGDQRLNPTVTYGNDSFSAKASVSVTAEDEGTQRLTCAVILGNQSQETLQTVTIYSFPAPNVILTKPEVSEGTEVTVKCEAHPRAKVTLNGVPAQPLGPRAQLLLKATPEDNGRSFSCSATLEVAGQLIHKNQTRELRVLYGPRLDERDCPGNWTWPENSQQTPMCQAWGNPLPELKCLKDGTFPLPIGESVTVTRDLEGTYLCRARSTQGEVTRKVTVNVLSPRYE
# Procedure: as §1, §2
# where Rmax is the maximum resonance due to binding observed, and c is the concentration of the injectant. Finally, the dissociation equilibrium constant kD was calculated as the ratio of kd over ka (see Table 2). The low nanomolar kD values obtained for the different aptamers confirm the strong binding affinity of such molecules towards ICAM-1 and validate the aptamer selection process described in Example 1. As used herein, “kd” refers to the dissociation rate, “ka” refers to the association rate, and “kD” refers to the dissociation equilibrium constant.
# ICAM-1 (on cells) [2] = biological target: T2, ICAM-1 (on cells) (Homo sapiens, UniProt P05362 SEQ:28-532); assay: HNEpC cells, FAM-RNA 500 nM, 37 C; qPCR binding higher than to HEK293; settings: tags: endogenous on HNEpC (PromoCell C-21060) or H1-HeLa cells
# T2 sequence (P05362 28-532): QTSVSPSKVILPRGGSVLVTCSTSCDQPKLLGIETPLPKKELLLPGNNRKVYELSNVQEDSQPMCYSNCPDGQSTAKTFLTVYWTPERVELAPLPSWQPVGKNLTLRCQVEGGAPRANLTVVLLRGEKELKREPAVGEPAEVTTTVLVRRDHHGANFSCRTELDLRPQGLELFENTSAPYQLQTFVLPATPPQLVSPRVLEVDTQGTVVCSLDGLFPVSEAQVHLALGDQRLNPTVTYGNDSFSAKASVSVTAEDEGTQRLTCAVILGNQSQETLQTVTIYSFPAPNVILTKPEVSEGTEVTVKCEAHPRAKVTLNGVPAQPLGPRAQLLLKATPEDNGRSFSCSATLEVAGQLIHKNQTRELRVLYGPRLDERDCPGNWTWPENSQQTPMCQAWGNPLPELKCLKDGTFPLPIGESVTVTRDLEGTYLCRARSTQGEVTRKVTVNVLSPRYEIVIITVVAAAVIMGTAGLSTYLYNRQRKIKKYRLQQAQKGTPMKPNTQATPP
# [3] = biological target: T1, ICAM-1 extracellular domain (C-terminal …); assay: ITC; 37 C, potassium phosphate; 1.27 nM at 33 C (tighter); settings: tags: C-terminal His6; Ray-Biotech 228-21751-2
# Procedure: (§3) Aptamers as disclosed herein were selected to perform at 37° C. in the SELEX selection process. Further, all experiments relating to performance of aptamers executed on cells grown in culture were performed at 37° C. as well, as this was the appropriate temperature for optimal cell growth and corresponds to body temperature. However, the aptamers are intended to function on the inner surface of the nasal cavity in vivo and said nasal cells show a slightly lower average temperature of 33° C. As such it was important to ensure that the aptamers of the present invention perform at both temperatures. Accordingly, binding analysis was executed using isothermal titration calorimetry (ITC) using Nano ITC (Low Volume of TA Instruments) and following user instructions for the NasD-4.1 aptamer (SEQ ID NO: 244) at 37° C. as well as at 33° C. Specific mutations in sequence (SEQ ID NO: 264-270) were tested to analyze the impact of temperature and secondary structure. 600 nM concentration of the NasD-4.1 aptamer was injected in 11 injections of 4.88 uL each into a 100 nM concentration of ICAM-1 receptor protein in a volume of 193 uL. The same concentration of mutant aptamer was injected into buffer, as well as buffer was injected into the same amount of protein as controls. The ITC experiments were performed at 33° C. and 37° C. in potassium phosphate buffer.
# [4] = biological target: T1, ICAM-1 extracellular domain (C-terminal …); assay: ITC; 37 C, potassium phosphate; 18.1 nM at 33 C; settings: tags: C-terminal His6; Ray-Biotech 228-21751-2
# Procedure: as §3
# [5] = biological target: T1, ICAM-1 extracellular domain (C-terminal …); assay: ITC; 37 C, potassium phosphate; 10 nM at 33 C; settings: tags: C-terminal His6; Ray-Biotech 228-21751-2
# Procedure: as §3
# [6] = biological target: T1, ICAM-1 extracellular domain (C-terminal …); assay: ITC; 37 C, potassium phosphate; 14.3 nM at 33 C; settings: tags: C-terminal His6; Ray-Biotech 228-21751-2
# Procedure: as §3
# [7] = biological target: T1, ICAM-1 extracellular domain (C-terminal …); assay: ITC; 37 C, potassium phosphate; 9.09 nM at 33 C; settings: tags: C-terminal His6; Ray-Biotech 228-21751-2
# Procedure: as §3
# ICAM-1 (on cells) [8] = biological target: T2, ICAM-1 (on cells); assay: HNEpC cells, 2 h, 500 nM; RH-30 below 500 RFU; settings: tags: endogenous on HNEpC (PromoCell C-21060) or H1-HeLa cells; label: FAM in cell assay; hairpin with dangling 5' and 3' ends
# Procedure: (§4) Fluorescein amidite (FAM)-conjugated DNA aptamers were incubated at 500 nM onto cells cultured in 24-well plates for 4 hours at 37° C. in 5% CO2. At specific timepoints (0.5h, 1h, 2h, 4h), the cell media was aspirated, and the wells were washed three times with 1× selection buffer. To elute and lyse the cells, 200ul of 6M urea was applied to the well and incubated at 37° C. for 5 minutes. The urea-aptamer solution was transferred and measured in a 96-well microplate reader at 495 nm absorbance. Samples were measured in triplicate. FIGS. 23 to 26 show the results.
# Maximal binding can be seen after 2 hours, wherein the absolute number of the truncated sequence bound to HNEpC is 2.5 times of the number of the parent aptamer bound. Binding to RH-30 cells is similar for both aptamers, truncated sequence (SEQ ID NO: 244) and parent sequence (SEQ ID NO: 104) and below 500 RFU.
# [9] = biological target: T1, ICAM-1 extracellular domain (C-terminal …); assay: ITC; 37 C, potassium phosphate; 8.86 nM at 33 C; settings: tags: C-terminal His6; Ray-Biotech 228-21751-2; label: FAM in cell assay; hairpin with dangling 5' and 3' ends
# Procedure: as §3
# [10] = biological target: T1, ICAM-1 extracellular domain (C-terminal …); assay: ITC; 37 C, potassium phosphate; 37 nM at 33 C (weaker); settings: tags: C-terminal His6; Ray-Biotech 228-21751-2
# Procedure: as §3
# [11] = biological target: T1, ICAM-1 extracellular domain (C-terminal …); assay: ITC; 37 C, potassium phosphate; 7.96 nM at 33 C; settings: tags: C-terminal His6; Ray-Biotech 228-21751-2
# Procedure: as §3
# ICAM-1 (on cells) [12] = biological target: T2, ICAM-1 (on cells); assay: HNEpC cells, 0.5 h, 500 nM; RH-30 hardly detectable; settings: tags: endogenous on HNEpC (PromoCell C-21060) or H1-HeLa cells; label: FAM
# Procedure: as §4
# Maximal binding of the truncated sequence Nas.D-5 (SEQ ID NO: 245) can be observed after 0.5 hours, wherein more than 2 times of the truncated aptamers bound to HNEpC compared to the parent aptamer. Binding to RH-30 cells was hardly detectable (FIG. 25). […] The absolute number of bound oligonucleotides of the truncated aptamer (SEQ ID NO: 246) is again higher than the number of bound oligonucleotides of the parent sequence (SEQ ID NO: 108).
# Chain of human serum albumin (P02768 25-609, one chain of several): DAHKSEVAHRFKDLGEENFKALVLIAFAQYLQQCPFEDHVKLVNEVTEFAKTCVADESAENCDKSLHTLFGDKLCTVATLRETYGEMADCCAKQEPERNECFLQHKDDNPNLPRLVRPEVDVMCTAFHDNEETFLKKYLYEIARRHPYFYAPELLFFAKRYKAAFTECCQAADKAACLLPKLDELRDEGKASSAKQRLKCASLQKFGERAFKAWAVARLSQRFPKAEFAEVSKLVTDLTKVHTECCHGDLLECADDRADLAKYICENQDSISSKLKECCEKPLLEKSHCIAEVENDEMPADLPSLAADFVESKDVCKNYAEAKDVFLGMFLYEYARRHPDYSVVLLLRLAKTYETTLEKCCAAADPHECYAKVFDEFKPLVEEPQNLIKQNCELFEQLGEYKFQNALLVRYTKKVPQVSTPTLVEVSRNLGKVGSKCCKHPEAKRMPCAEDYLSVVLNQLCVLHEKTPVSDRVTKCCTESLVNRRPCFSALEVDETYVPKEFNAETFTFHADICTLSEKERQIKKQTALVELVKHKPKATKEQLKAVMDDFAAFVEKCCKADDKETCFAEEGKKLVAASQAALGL
binder,measurement,setting,value
"Nas.R-8 (ssRNA, 2'-F pyrimidines (all C and U)) RNA: GGGUGCAUCGUUUACGCGUAAAAAUUAAAGAGAUUAAGGUCCUUAAGCAGUUUUGUCCUGCUGCUGAGGAAGGAUAUGAG",binding result,human serum albumin,no binding
same,Kd,[1],28.4 nM
same,binding signal,ICAM-1 (on cells) [2],12 % surface bound
"Nas.R-1 (ssRNA, 2'-F pyrimidines (all C and U)) RNA: GGGUGCAUCGUUUACGCGAUUAGUCUGAUAAACAAAAAGAUUUCGCUAAAAAUCAAUCUGCUGCUGAGGAAGGAUAUGAG",binding result,human serum albumin,no binding
same,Kd,[1],64.4 nM
GTGCTCAGTTGTCAATCTAAGACTGCTGCTGAGGAAG (ssDNA) [NasD-4.1 State 6],Kd,[3],18.6 nM
GTGGTCAGTTGTGAATCTATGACTGCTGCTGAGGAAG (ssDNA) [NasD-4.1 State 1],Kd,[4],2.83 nM
GAGCTCAGTTGTCAATCTATGACTGCTGCTGAGGAAG (ssDNA) [NasD-4.1 State 2],Kd,[5],102 nM
GTGCTCACTTGTCAATCTATGACTGCTGCTCAGGAAG (ssDNA) [NasD-4.1 State 3],Kd,[6],40.4 nM
GTGCTCAGTTGTCAAAGAATGACTGCTGCTGAGGAAG (ssDNA) [NasD-4.1 State 7],Kd,[7],6.77 nM
GTGCTCAGTTGTCAATCTATGACTGCTGCTGAGGAAG (ssDNA) [Nas.D-4.1],binding signal,ICAM-1 (on cells) [8],2.5 fold vs parent Nas.D-4
same,Kd,[9],11.2 nM
GTGCTCACTTGTCAATCTATGACTGCTGCTGAGTAAG (ssDNA) [NasD-4.1 State 4],Kd,[10],6.39 nM
"Nas.R-2 (ssRNA, 2'-F pyrimidines (all C and U)) RNA: GGGUGCAUCGUUUACGCAGAUAGCAGCAGGAAUCAAGCGGUAGGAGUCUAGCAGAAGCUGCUGCUGAGGAAGGAUAUGAG",binding result,human serum albumin,no binding
same,Kd,[1],70.2 nM
same,binding signal,ICAM-1 (on cells) [2],17 % surface bound
GTGCTCTCTTGTCAATCTATGACTGCTGGAGAGGAAG (ssDNA) [NasD-4.1 State 5],Kd,[11],5.14 nM
GGGCGCACCGTTTACGCGTAAATCGGTCCGCTATT (ssDNA) [Nas.D-5.1],binding signal,ICAM-1 (on cells) [12],> 2 fold vs parent Nas.D-5
"Nas.R-4 (ssRNA, 2'-F pyrimidines (all C and U)) RNA: GGGUGCAUCGUUUACGCGCAACAUAAAAAUUUAAAGUGCUCAGUUGUCAAUCUAUGACUGCUGCUGAGGAAGGAUAUGAG",binding result,human serum albumin,no binding
same,Kd,[1],44.3 nM
same,binding signal,ICAM-1 (on cells) [2],11 % surface bound
